Measurements: IntAct's records for PubMed 24076653

B1: BAR/IMD domain-containing adapter protein 2 (Homo sapiens), Q9UQB8-4 (parent)
chain: MSLSRSEEMHRLTENVYKTIMEQFNPSLRNFIAMGKNYEKALAGVTYAAKGYFDALVKMGELASESQGSKELGDVLFQMAEVHRQIQNQLEEMLKSFHNELLTQLEQKVELDSRYLSAALKKYQTEQRSKGDALDKCQAELKKLRKKSQGSKNPQKYSDKELQYIDAISNKQGELENYVSDGYKTALTEERRRFCFLVEKQCAVAKNSAAYHSKGKELLAQKLPLWQQACADPSKIPERAVQLMQQVASNGATLPSALSASKSNLVISDPIPGAKPLPVPPELAPFVGRMSAQESTPIMNGVTGPDGEDYSPWADRKAAQPKSLSPPQSQSKLSDSYSNTLPVRKSVTPKNSYATTENKTLPRSSSMAAGLERNGRMRVKAIFSHAAGDNSTLLSFKEGDLITLLVPEARDGWHYGESEKTKMRGWFPFSYTRVLDSDGSDRLHMSLQQGKSSSTGNLLDKDDLAIPPPDYGAASRAFPAQTASGFKQRPYSVAVPAFSQGLDDYGARSMSSGSGTLVSTV

Variants of: B1
Details: with vasp_human VASP

Variant	effect of a mutation on the interaction
MSLSRSEEMHRLTENVYKTIMEQFNPSLRNFIAMGKNYEKALAGVTYAAKGYFDALVKMGELASESQGSKELGDVLFQMAEVHRQIQNQLEEMLKSFHNELLTQLEQKVELDSRYLSAALKKYQTEQRSKGDALDKCQAELKKLRKKSQGSKNPQKYSDKELQYIDAISNKQGELENYVSDGYKTALTEERRRFCFLVEKQCAVAKNSAAYHSKGKELLAQKLPLWQQACADPSKIPERAVQLMQQVASNGATLPSALSASKSNLVISDPIPGAKPLPVPPELAPFVGRMSAQESTPIMNGVTGPDGEDYSPWADRKAAQPKSLSPPQSQSKLSDSYSNTLPVRKSVTPKNSYATTENKTLPRSSSMAAGLERNGRMRVKAIFSHAAGDNSTLLSFKEGDLITLLVPEARDGGHYGESEKTKMRGWFPFSYTRVLDSDGSDRLHMSLQQGKSSSTGNLLDKDDLAIPPPDYGAASRAFPAQTASGFKQRPYSVAVPAFSQGLDDYGARSMSSGSGTLVSTV [W413G]	disrupting interaction
